Key:
human serum albumin [1] = target: T1, human serum albumin (human, UniProt P02768 25-609); assay: kinetic binding analysis in MES buffer, pH 5.5
T1 construct: also called HSA

rhesus serum albumin [2] = target: T2, rhesus serum albumin (rhesus, UniProt Q28522 17-600); assay: kinetic binding analysis in MES buffer, pH 5.5
T2 construct: also called RhSA

human serum albumin [3] = target: T1, human serum albumin; assay: kinetic binding analysis in MES buffer, pH 7.4
rhesus serum albumin [4] = target: T2, rhesus serum albumin; assay: kinetic binding analysis in MES buffer, pH 7.4
human serum albumin [5] = target: T1, human serum albumin; assay: kinetic binding analysis in HBS-P buffer, 25 °C
rhesus serum albumin [6] = target: T2, rhesus serum albumin; assay: kinetic binding analysis in HBS-P buffer, 25 °C
murine serum albumin = target: T3, murine serum albumin (mouse, UniProt P07724 25-608); assay: kinetic binding analysis in HBS-P buffer, 25 °C
T3 construct: also called MuSA; Mouse

human serum albumin [7] = target: T1, human serum albumin; assay: kinetic binding analysis in HBS-P buffer, 37 °C
rhesus serum albumin [8] = target: T2, rhesus serum albumin; assay: kinetic binding analysis in HBS-P buffer, 37 °C

T1 sequence (P02768 25-609 limits assumed): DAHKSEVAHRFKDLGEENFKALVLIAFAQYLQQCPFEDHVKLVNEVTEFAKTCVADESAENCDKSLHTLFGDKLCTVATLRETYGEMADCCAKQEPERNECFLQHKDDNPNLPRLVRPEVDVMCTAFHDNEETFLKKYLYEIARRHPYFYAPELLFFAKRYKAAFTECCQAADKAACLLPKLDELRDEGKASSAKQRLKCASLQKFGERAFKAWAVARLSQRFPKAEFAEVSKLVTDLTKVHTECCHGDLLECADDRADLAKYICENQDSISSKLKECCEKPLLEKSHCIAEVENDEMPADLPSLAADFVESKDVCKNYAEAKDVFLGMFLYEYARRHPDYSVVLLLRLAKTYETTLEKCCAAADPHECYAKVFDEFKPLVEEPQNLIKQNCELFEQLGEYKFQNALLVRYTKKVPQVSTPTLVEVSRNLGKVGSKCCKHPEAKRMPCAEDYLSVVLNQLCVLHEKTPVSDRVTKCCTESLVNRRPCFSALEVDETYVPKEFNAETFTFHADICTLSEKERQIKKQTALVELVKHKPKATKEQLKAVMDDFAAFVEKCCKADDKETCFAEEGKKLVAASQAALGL
T2 sequence (Q28522 17-600 limits assumed): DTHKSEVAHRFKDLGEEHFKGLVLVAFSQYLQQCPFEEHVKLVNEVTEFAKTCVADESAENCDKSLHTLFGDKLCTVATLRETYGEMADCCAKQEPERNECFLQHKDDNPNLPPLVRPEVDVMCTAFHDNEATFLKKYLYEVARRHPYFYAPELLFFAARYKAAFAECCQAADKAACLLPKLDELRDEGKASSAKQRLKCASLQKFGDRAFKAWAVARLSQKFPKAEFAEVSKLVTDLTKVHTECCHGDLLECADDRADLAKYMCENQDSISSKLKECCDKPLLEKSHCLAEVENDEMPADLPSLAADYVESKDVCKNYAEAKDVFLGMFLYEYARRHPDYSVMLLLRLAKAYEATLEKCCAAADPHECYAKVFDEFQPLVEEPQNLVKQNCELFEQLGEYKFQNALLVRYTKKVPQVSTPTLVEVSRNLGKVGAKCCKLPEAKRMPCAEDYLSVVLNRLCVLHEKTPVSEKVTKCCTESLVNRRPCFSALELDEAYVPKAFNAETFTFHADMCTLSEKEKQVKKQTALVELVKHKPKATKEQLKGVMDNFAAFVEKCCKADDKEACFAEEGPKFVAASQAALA

B1: SABA1.2 (designed binder)
chain: MGVSDVPRDLEVVAATPTSLLISWHSYYEQNSYYRITYGETGGNSPVQEFTVPYSQTTATISGLKPGVDYTITVYAVYGSKYYYPISINYRTEIEDEDEDEDED
notes: It has no His tag; also called "core 1" 10Fn3 comprising an (ED)5 extension
Q: What does the source list for B1?
A: Kd (human serum albumin [1]): 28.6 nM; koff (human serum albumin [1]): 0.00027 s⁻¹; kon (human serum albumin [1]): 9440 M⁻¹ s⁻¹; Kd (rhesus serum albumin [2]): 359 nM; koff (rhesus serum albumin [2]): 0.00272 s⁻¹; kon (rhesus serum albumin [2]): 7570 M⁻¹ s⁻¹; Kd (human serum albumin [3]): 41.9 nM; koff (human serum albumin [3]): 0.000388 s⁻¹; kon (human serum albumin [3]): 9260 M⁻¹ s⁻¹; Kd (rhesus serum albumin [4]): 479 nM; koff (rhesus serum albumin [4]): 0.00295 s⁻¹; kon (rhesus serum albumin [4]): 6160 M⁻¹ s⁻¹; Kd (human serum albumin [5]): 55.3 nM; koff (human serum albumin [5]): 0.000443 s⁻¹; kon (human serum albumin [5]): 8210 M⁻¹ s⁻¹; Kd (rhesus serum albumin [6]): 580 nM; koff (rhesus serum albumin [6]): 0.00378 s⁻¹; kon (rhesus serum albumin [6]): 6600 M⁻¹ s⁻¹; binding result (murine serum albumin): no binding (tested: up to 1 µM); Kd (human serum albumin [7]): 24.1 nM; koff (human serum albumin [7]): 0.000815 s⁻¹; kon (human serum albumin [7]): 33800 M⁻¹ s⁻¹; Kd (rhesus serum albumin [8]): 977 nM; koff (rhesus serum albumin [8]): 0.0185 s⁻¹; kon (rhesus serum albumin [8]): 18900 M⁻¹ s⁻¹

Reference: patent publication US20120094909A1 (Bristol-Myers Squibb, published 2012)
